Results: patent US20230152323A1 (NORDIC BIOSCIENCE A S, published 2023)
No end group written: not given here.

Columns and labels:
[1] = target: T1, Standard peptide LLARDFEKNY (human); assay: preliminary competitive ELISA, hybridoma supernatant, 10 ng/mL biotinylated coating peptide
T1 construct: Synthetic peptide from Genscript with a free N-terminus; also called calibration peptide
T1 peptide: LLARDFEKNY
Description: The reactivity of the monoclonal antibody was evaluated by displacement using human serum samples and the standard peptide ([…]; SEQ ID NO: 1) in a preliminary ELISA using 10 ng/mL biotinylated coating peptide on streptavidin-coated microtiter plates (Roche, Basel, Switzerland, cat. #11940279) and the supernatant from the antibody producing monoclonal hybridoma cells. The clone with the best reactivity towards the standard peptide was purified using protein-G-columns according to the manufacturer’s instructions (GE Healthcare Life Sciences, Little Chalfont, UK, cat. #17-0404-01 ).

[2] = target: T2, Non-sense coating peptide VPKDLPPDTT-biotin; assay: ELISA, peptide coated on a streptavidin plate
T2 construct: Held on streptavidin-coated plates; also called non-sense biotinylated coating peptide
T2 peptide: VPKDLPPDTT-biotin
Description: The target sequence was used as the standard peptide ([…]; SEQ ID NO: 1). A biotinylated peptide ([…]-K-biotin; SEQ ID NO:7) was included as a coating peptide with addition of a lysine residue to the C-terminal end to ensure biotin linking. The specificity of the antibody was tested by including an elongated standard peptide with an additional amino acid added to the N-terminal of the target peptide sequence ([…]; SEQ ID NO: 2), a truncated standard peptide with a removal of the first N-terminal amino acid ([…]; SEQ ID NO: 3) as well as a non-sense standard peptide ([…]; SEQ ID NO: 4) and a non-sense biotinylated coating peptide ([…]-biotin; SEQ ID NO: 5) in the assay validation. Four peptides (Von Willebrand factor, glucagon, SPARC-like protein 1 and ADAMTS15) with one amino acid mismatch compared to the first six amino acids in the target sequence were also included to further test the antibody specificity. The immunogenic peptide ([…]-GGC-KLH; SEQ ID NO: 6) was generated by covalently cross-linking the standard peptide to Keyhole Limpet Hemocyanin (KLH) carrier protein using Succinimidyl 4-(N-maleimidomethyl)cyclohexane-1-carboxylate, SMCC (Thermo Scientific, Waltham, MA, USA, cat.no. 22336). Glycine and cysteine residues were added at the C-terminal end to ensure right linking of the carrier protein. […]

[3] = target: T3, Recombinant human SPARC, full-length, uncleaved (human, UniProt P09486 18-303); assay: competitive SPARC-M ELISA on recombinant SPARC incubated without protease
T3 construct: Incubated in MMP buffer without protease and then measured in the SPARC-M ELISA; also called recombinant full-length SPARC; osteonectin
T3 sequence (looked up): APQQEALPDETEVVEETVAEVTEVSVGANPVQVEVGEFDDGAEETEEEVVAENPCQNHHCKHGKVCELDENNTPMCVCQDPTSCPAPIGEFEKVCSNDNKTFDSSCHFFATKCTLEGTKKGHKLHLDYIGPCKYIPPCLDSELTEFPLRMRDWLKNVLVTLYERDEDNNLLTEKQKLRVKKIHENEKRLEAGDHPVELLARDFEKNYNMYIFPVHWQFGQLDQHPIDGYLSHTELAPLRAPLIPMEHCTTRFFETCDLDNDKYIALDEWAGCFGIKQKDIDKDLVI

[4] = target: T4, SPARC-like protein 1 (SLP1) peptide LLLRDFKKNY (human); assay: competitive SPARC-M ELISA, peptide as competitor
T4 construct: A peptide was tested, not the whole protein
T4 peptide: LLLRDFKKNY
Description: (§1) The specificity of the antibody was tested by including an elongated standard peptide with an additional amino acid added to the N-terminal of the target peptide sequence ([…]; SEQ ID NO: 2), a truncated standard peptide with a removal of the first N-terminal amino acid ([…]; SEQ ID NO: 3) as well as a non-sense standard peptide ([…]; SEQ ID NO: 4) and a non-sense biotinylated coating peptide ([…]-biotin; SEQ ID NO: 5) in the assay validation. Four peptides (Von Willebrand factor, glucagon, SPARC-like protein 1 and ADAMTS15) with one amino acid mismatch compared to the first six amino acids in the target sequence were also included to further test the antibody specificity. The immunogenic peptide ([…]-GGC-KLH; SEQ ID NO: 6) was generated by covalently cross-linking the standard peptide to Keyhole Limpet Hemocyanin (KLH) carrier protein using Succinimidyl 4-(N-maleimidomethyl)cyclohexane-1-carboxylate, SMCC (Thermo Scientific, Waltham, MA, USA, cat.no. 22336). Glycine and cysteine residues were added at the C-terminal end to ensure right linking of the carrier protein.
(§2) A 96-well streptavidin-coated microtiter plate was coated with 1.1 ng/mL biotinylated coating peptide dissolved in assay buffer (50 mM Tris-BTB, 4 g/L NaCl, pH 8.0) and incubated for 30 min. at 20° C. in darkness shaking (300 rpm). Twenty µL standard peptide or pre-diluted serum (1:4) were added to appropriate wells, followed by the addition of 100 µL monoclonal antibody dissolved in assay buffer to a concentration of 14 ng/mL to each well and incubated 1 hour at 20° C. in darkness shaking (300 rpm). One hundred µL of goat anti-mouse POD-conjugated IgG antibody (Thermo Scientific, Waltham, MA, USA, cat. #31437) diluted 1:6000 in assay buffer was added to each well and incubated 1 hour at 20° C. in darkness shaking. All incubation steps were followed by five washes in washing buffer (20 mM Tris, 50 mM NaCl, pH 7.2). Finally, 100 µL tetramethylbenzidine (TMB) (cat. 438OH, Kem-En-Tec Diagnostics, Denmark) was added to each well and the plate was incubated for 15 minutes at 20° C. in darkness shaking. The enzymatic reaction was stopped by adding 0.18 M H₂SO₄ and absorbance was measured at 450 nm with 650 nm as reference. A calibration curve was plotted using a 4-parameter logistic curve fit. Data were analyzed using the SoftMax Pro v.6.3 software.

[5] = target: T5, Von Willebrand factor (VWF) peptide LLARDCQDHS (human); assay: competitive SPARC-M ELISA, peptide as competitor
T5 construct: A peptide was tested, not the whole protein
T5 peptide: LLARDCQDHS
Description: as §1, §2

[6] = target: T6, Glucagon (GCG) peptide LAARDFINWL (human); assay: competitive SPARC-M ELISA, peptide as competitor
T6 construct: A peptide was tested, not the whole protein
T6 peptide: LAARDFINWL
Description: as §1, §2

[7] = target: T7, ADAMTS15 (A15) peptide LLARDQCNLH (human); assay: competitive SPARC-M ELISA, peptide as competitor
T7 construct: A peptide was tested, not the whole protein
T7 peptide: LLARDQCNLH
Description: as §1, §2

B1: SPARC-M monoclonal antibody (antibody, mouse IgG1, kappa, V domains shown)
VH: EVKLVESGGGLVKPGGSLKLSCAASGFTFSRNAMSWVRQTPEKRLEWVASISTSDNTYYPDSVKGRFTISKDNARNILYLQMSSLRSEDTAMYYCASGFDVGAYWGQGTLVTVSA
VL: DVLMTQTPLSLPVSLGDQASISCRSSQSIVHSNGNTYLEWYLQKPGQSPKLLIYKVSNRFSGVPDRFSGSGSGTDFTLKISRVDTEDLGVYYCFQGSHVPLTFGAGTKLELKR
notes: also called the antibody; the selected antibody
binding result [1]: binds | binding result [2]: no binding | binding result [3]: no binding | binding result [4]: no binding | binding result [5]: no binding | binding result [6]: no binding | binding result [7]: no binding
